The supplement of paper PMC9112550, “Optimization of the antimicrobial peptide Bac7 by deep mutational scanning” (BMC Biology, 2022)

test system: Escherichia coli TOP10; test: shrunken log2 fold change of peptide-encoding DNA abundance (4.5 h post-induction vs induction); higher = less antimicrobial activity (less host growth inhibition); settings: time post-induction: 4.5 h; library: site-saturation at positions 5, 18, 19, 20
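Further: peptides expressed intracellularly from a pBAD plasmid library in pooled LB shake-flask culture, induced with 0.3% L-arabinose, DNA abundance read by NGS, three biological replicates, DESeq2 with apeglm shrinkage.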

Sequence | shrunken log2 fold change
RRIRVRPPRLPRPRPRPAMAPRP | 0.418
RRIRQRPPRLPRPRPRPTMLPRP | -0.339
RRIRDRPPRLPRPRPRPNKMPRP | -0.195
RRIRGRPPRLPRPRPRPMIAPRP | 0.915
RRIRMRPPRLPRPRPRPHIFPRP | -0.268
RRIRARPPRLPRPRPRPNYRPRP | 0.0835
RRIRQRPPRLPRPRPRPTTTPRP | -0.126
RRIRRRPPRLPRPRPRPPTSPRP | 0.54
RRIRRRPPRLPRPRPRPYVQPRP | 0.0531
RRIRKRPPRLPRPRPRPHNEPRP | 0.323
RRIRVRPPRLPRPRPRPREVPRP | 0.089
RRIRARPPRLPRPRPRPHINPRP | -0.325
RRIRRRPPRLPRPRPRPCLVPRP | -0.096
RRIRDRPPRLPRPRPRPPEQPRP | 0.261
RRIRERPPRLPRPRPRPQDVPRP | -0.177
RRIRARPPRLPRPRPRPAAVPRP | 0.8
RRIRMRPPRLPRPRPRPPITPRP | -0.109
RRIRWRPPRLPRPRPRPLEEPRP | 1.06
RRIRTRPPRLPRPRPRPSDRPRP | -0.138
RRIRYRPPRLPRPRPRPKVKPRP | -0.233
RRIRQRPPRLPRPRPRPSRQPRP | -0.101
RRIRHRPPRLPRPRPRPTAWPRP | 0.0946
RRIRCRPPRLPRPRPRPFMMPRP | -0.266
RRIRQRPPRLPRPRPRPTTKPRP | -0.122
RRIRQRPPRLPRPRPRPFGIPRP | -0.138

Sequence | shrunken log2 fold change
RRIRYRPPRLPRPRPRPEDTPRP | -0.00443
RRIRLRPPRLPRPRPRPVEPPRP | 0.188
RRIRRRPPRLPRPRPRPRMIPRP | -0.136
RRIRGRPPRLPRPRPRPKQGPRP | 0.524
RRIRKRPPRLPRPRPRPQIHPRP | 0.0287
RRIRARPPRLPRPRPRPAWPPRP | 0.582
RRIRWRPPRLPRPRPRPVIHPRP | 0.162
RRIRYRPPRLPRPRPRPGCCPRP | -0.309
RRIRKRPPRLPRPRPRPIDFPRP | 0.131
RRIRPRPPRLPRPRPRPKSAPRP | 0.532
RRIRRRPPRLPRPRPRPLTRPRP | 0.234
RRIRLRPPRLPRPRPRPLQFPRP | 0.0239
RRIRTRPPRLPRPRPRPKNWPRP | 0.183
RRIRNRPPRLPRPRPRPPQNPRP | -0.0172
RRIRSRPPRLPRPRPRPISTPRP | -0.102
RRIRVRPPRLPRPRPRPSHKPRP | -0.24
RRIRERPPRLPRPRPRPEDRPRP | -0.0523
RRIRQRPPRLPRPRPRPKDIPRP | 0.0266
RRIRMRPPRLPRPRPRPHCHPRP | -0.137
RRIRHRPPRLPRPRPRPWSEPRP | 0.00408
RRIRHRPPRLPRPRPRPKAEPRP | 0.0672
RRIRMRPPRLPRPRPRPPIKPRP | 0.288
RRIRIRPPRLPRPRPRPCTGPRP | -0.887
RRIRRRPPRLPRPRPRPIHPPRP | -0.261
RRIRKRPPRLPRPRPRPRAGPRP | 0.48

Sequence | shrunken log2 fold change
RRIRERPPRLPRPRPRPMKVPRP | -0.0915
RRIRDRPPRLPRPRPRPAKHPRP | 0.0985
RRIRHRPPRLPRPRPRPQQVPRP | -0.0214
RRIRERPPRLPRPRPRPMIHPRP | -0.65
RRIRGRPPRLPRPRPRPMISPRP | 1.18
RRIRCRPPRLPRPRPRPQHAPRP | -0.0229
RRIRERPPRLPRPRPRPYVMPRP | -0.401
RRIRWRPPRLPRPRPRPTWVPRP | 0.688
RRIRSRPPRLPRPRPRPCTHPRP | -0.00194
RRIRERPPRLPRPRPRPDEFPRP | 0.0332
RRIRDRPPRLPRPRPRPCSNPRP | 0.0176
RRIRERPPRLPRPRPRPDHNPRP | -0.897
RRIRERPPRLPRPRPRPAFGPRP | 0.353
RRIRRRPPRLPRPRPRPTLEPRP | 0.607
RRIRSRPPRLPRPRPRPTVAPRP | 0.243
RRIRVRPPRLPRPRPRPKVTPRP | 0.0458
RRIRHRPPRLPRPRPRPMTNPRP | -0.19
RRIRPRPPRLPRPRPRPDDMPRP | 0.0244
RRIRNRPPRLPRPRPRPPYYPRP | -0.575
RRIRNRPPRLPRPRPRPIDAPRP | 0.0153
RRIRPRPPRLPRPRPRPFHSPRP | -0.153
RRIRWRPPRLPRPRPRPCARPRP | 0.0277
RRIRRRPPRLPRPRPRPKKAPRP | -0.00843
RRIRERPPRLPRPRPRPECHPRP | 0.0213
RRIRWRPPRLPRPRPRPNNQPRP | -0.494
